Assay results reported in PMC8406272.

Columns and labels:
[1] = molecular target: T1, Lsr2 (Streptomyces venezuelae ATCC 10712) (UniProt F2R951); assay: EMSA; settings: 10 mM Tris pH 7.8, 5 mM MgCl2, 60 mM KCl, 10% glycerol; Lsr2 (EMSA, AFM): room temperature 10 min then ice 30 min; CmlR: 30 C 30 min
T1 sequence: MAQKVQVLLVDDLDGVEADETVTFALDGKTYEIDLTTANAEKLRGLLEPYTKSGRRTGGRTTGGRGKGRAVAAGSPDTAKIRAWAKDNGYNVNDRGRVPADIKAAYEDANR

[2] = molecular target: T2, CmlR (Streptomyces venezuelae ATCC 10712) (UniProt F2RB72); assay: EMSA; settings: 10 mM Tris pH 7.8, 5 mM MgCl2, 60 mM KCl, 10% glycerol; Lsr2 (EMSA, AFM): room temperature 10 min then ice 30 min; CmlR: 30 C 30 min
T2 sequence: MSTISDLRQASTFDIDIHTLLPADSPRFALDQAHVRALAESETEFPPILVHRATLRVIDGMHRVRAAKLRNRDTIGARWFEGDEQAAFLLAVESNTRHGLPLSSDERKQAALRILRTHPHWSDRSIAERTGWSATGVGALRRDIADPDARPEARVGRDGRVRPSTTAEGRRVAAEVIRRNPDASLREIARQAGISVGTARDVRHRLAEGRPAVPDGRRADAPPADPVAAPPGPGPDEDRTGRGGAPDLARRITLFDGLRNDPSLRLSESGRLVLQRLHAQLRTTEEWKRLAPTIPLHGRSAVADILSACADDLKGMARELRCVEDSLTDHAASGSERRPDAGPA

Row | Sequence | binding [1] | binding [2]
1 | GGATTTTCCTGAACGCCGGAGTCGGGTGACCGATAACCGGACACTTTCCGGATTTCGTGTCCGGATTGAGCCCGGTTATACGTCGAATGCCTCAAGT (double strand) [sven0904-0905 probe] | binds | 
2 | GGAGACGTTCAGGATCGCGGAACTCTGCTCAGTGGATTTCCGCAGCAGTTTGACCGCTTCCCGGCAGCAGTTCAGCACGGCGAAGAAATTGATGTCGAATATCTTCCGGGAAACCTCGTCCGGGGTCGTCATGAAATGGTTCATCGACGA (double strand) [sven0926 probe] | binds | 
3 | GGCCCACCCCTTCCTTCACTTCCCTTTGCGGGCTCTTCCCTTTGCGGGCTCGGCCCTTCCCGGGTCCGGCGTCTCGAAGTCTGTGGATATCGGTCGCGGGCCGCAAGGGTGTGCAGATCACCACCCCGTGCAACTGAAGGAACCGGACAGTTGAACAGGGCGGTGAACCGCGCGGACTGAACGACCTTGCGTGGGCCGGGGGCGTATGACATAAAAATCCAGGCGTCGGCCCGGAGCACGACTCGGCCGGCGACGCGATCTGTTCTGTCT (double strand) [sven0924-0925 promoter probe] |  | binds
4 | GGTGGATTCCGTAGTCATGGCGCGGACCTTACAGCGATGATCCACGATCATCCGACCGGCTTGTCTATTTTCAGCCAGTCCGACTCGCACCCGGCTCGAACGAAGCCGTGGCCCGAGCGTCACGGAAAGCGTGACACATGTCAGCGCGGCGCCTTTTTCCCTGTTCCGCCGCAATTCCCCGGCACATGATTACGGCCGGAAGCGAAACACATCACCAGGACGTTGTTTCTCGAATTCTCG (double strand) [sven5133 promoter probe] |  | no binding
